Results as given in publication PMC7794242, “Cryo-EM analysis of the HCoV-229E spike glycoprotein reveals dynamic prefusion conformational changes” (Nature Communications, 2021).

What was measured:
[1] = biological target: T1, HCoV-229E S glycoprotein wild-type soluble ectodomain (residues 1-1116) with C-terminal GCN4 trimerization … (HCoV-229E, UniProt P15423 16-1116); experiment: SPR; OpenSPR; hAPN immobilised on COOH sensor chip; S trimer peak 3 sample injected at 0, 3.13, 6.25, 12.5 and 25 nM; HBS-EP+ buffer; 298 K; one-to-one binding model; conditions: both partners purified
[2] = biological target: T1, HCoV-229E S glycoprotein wild-type …; experiment: SPR; OpenSPR; hAPN immobilised on COOH sensor chip; S trimer peak 2 sample injected at 0, 6.25, 12.5, 25 and 50 nM; HBS-EP+ buffer; 298 K; one-to-one binding model; conditions: both partners purified

B1: human aminopeptidase N (receptor)
chain: DQSKAWNRYRLPNTLKPDSYRVTLRPYLTPNDRGLYVFKGSSTVRFTCKEATDVIIIHSKKLNYTLSQGHRVVLRGVGGSQPPDIDKTELVEPTEYLVVHLKGSLVKDSQYEMDSEFEGELADDLAGFYRSEYMEGNVRKVVATTQMQAADARKSFPCFDEPAMKAEFNITLIHPKDLTALSNMLPKGPSTPLPEDPNWNVTEFHTTPKMSTYLLAFIVSEFDYVEKQASNGVLIRIWARPSAIAAGHGDYALNVTGPILNFFAGHYDTPYPLPKSDQIGLPDFNAGAMENWGLVTYRENSLLFDPLSSSSSNKERVVTVIAHELAHQWFGNLVTIEWWNDLWLNEGFASYVEYLGADYAEPTWNLKDLMVLNDVYRVMAVDALASSHPLSTPASEINTPAQISELFDAISYSKGASVLRMLSSFLSEDVFKQGLASYLHTFAYQNTIYLNLWDHLQEAVNNRSIQLPTTVRDIMNRWTLQMGFPVITVDTSTGTLSQEHFLLDPDSNVTRPSEFNYVWIVPITSIRDGRQQQDYWLIDVRAQNDLFSTSGNEWVLLNLNVTGYYRVNYDEENWRKIQTQLQRDHSAIPVINRAQIINDAFNLASAHKVPVTLALNNTLFLIEERQYMPWEAALSSLSYFKLMFDRSEVYGPMKNYLKKQVTPLFIHFRNNTNNWREIPENLMDQYSEVNAISTACSNGVPECEEMVSGLFKQWMENPNNNPIHPNLRSTVYCNAIAQGGEEEWDFAWEQFRNATLVNEADKLRAALACSKELWILNRYLSYTLNPDLIRKQDATSTIISITNNVIGQGLVWDFVQSNWKKLFNDYGGGSFSFSNLIQAVTRRFSTEYELQQLEQFKKDNEETGFGSGTRALEQALEKTKANIKWVKENKEVVLQWFTENSK
Kd [1]: 6.78 nM
koff [1]: 0.000485 s⁻¹
kon [1]: 71500 M⁻¹ s⁻¹
Kd [2]: 36.3 nM
koff [2]: 0.00115 s⁻¹
kon [2]: 31800 M⁻¹ s⁻¹
